From the Immune Epitope Database (IEDB) come the findings set out here.

pKd: −log10 of the molar value.

For assay [1], the target named is HLA-A*68:02. The assay can be described thus: IEDB peptide-MHC binding, purified MHC/competitive/fluorescence; filed as Kd, often an IC50 or EC50 that approximates it; ≥ and ≤ were set here for values at or beyond the usual limits of such assays. Conditions: source organism: Mycobacterium tuberculosis C.
Assay [2] deals with HLA-A*30:01. Described as above.
In assay [3] the target is HLA-B*07:02. The description is as above.
For assay [4], the target named is HLA-B*15:01. The description is as above.
Assay [5] concerns the target HLA-A*26:03. The description is as above. Conditions: source organism: Mycobacterium tuberculosis C.
The target in assay [6] is HLA-B*08:01. Described as above.
Assay [7] concerns the target HLA-B*27:05. Kind of assay: IEDB peptide-MHC binding, purified MHC/direct/fluorescence; filed as Kd, often an IC50 or EC50 that approximates it; ≥ and ≤ were set here for values at or beyond the usual limits of such assays.
Assay [8] concerns the target HLA-B*15:17. Described as above. Conditions: source organism: Mycobacterium tuberculosis.
The target in assay [9] is HLA-B*08:03. The description is as above. The conditions noted are these: source organism: Mycobacterium tuberculosis C.
In assay [10] the target is HLA-A*01:01. Described as above.
Assay [11] addresses HLA-A*31:01. Described as above.
For assay [12], the target named is HLA-B*58:01. The assay is described as above.
In assay [13] the target is HLA-B*18:01. The description is as above.
Assay [14] deals with HLA-B*08:02. Described as above.
Assay [15] deals with HLA-B*46:01. Described as above.
Assay [16] addresses HLA-A*26:01. The description is as above.
For assay [17], the target named is HLA-A*69:01. The assay is described as above.
In assay [18] the target is HLA-B*57:01. Described as above. Conditions: source organism: Mycobacterium tuberculosis.
Assay [19] concerns the target HLA-A*11:01. The assay is described as above.
Assay [20] deals with HLA-B*48:01. The description is as above. The conditions noted are these: source organism: Mycobacterium tuberculosis.
For assay [21], the target named is HLA-B*40:01. The description is as above.
Assay [22] deals with HLA-B*07:02. The assay is described as above.
Assay [23] concerns the target HLA-A*03:01. Described as above.
Assay [24] concerns the target HLA-A*02:01. The assay is described as above.
The target in assay [25] is HLA-B*15:01. Described as above.
Assay [26] has as its target HLA-B*44:02. The description is as above.
Assay [27] has as its target HLA-B*08:01. The assay is described as above.
Assay [28] deals with HLA-A*24:02. The assay is described as above.
The target of assay [29] is HLA-B*27:05. Kind of assay: IEDB peptide-MHC binding, purified MHC/competitive/fluorescence; filed as Kd, often an IC50 or EC50 that approximates it; ≥ and ≤ were set here for values at or beyond the usual limits of such assays. The conditions noted are these: source organism: Pseudomonas aeruginosa UCBPP-PA14.
For assay [30], the target named is HLA-A*03:01. The assay is described as above. Conditions: source organism: Pseudomonas aeruginosa UCBPP-PA14.
The target in assay [31] is HLA-A*01:01. The assay is described as above. The conditions noted are these: source organism: Pseudomonas aeruginosa UCBPP-PA14.
The target of assay [32] is HLA-A*31:01. The assay is described as above. The conditions noted are these: source organism: Pseudomonas aeruginosa UCBPP-PA14.
The target in assay [33] is HLA-B*58:01. The assay is described as above. Conditions: source organism: Pseudomonas aeruginosa UCBPP-PA14.
Assay [34] addresses HLA-A*26:01. The description is as above. Conditions: source organism: Pseudomonas aeruginosa UCBPP-PA14.
Assay [35] addresses HLA-A*69:01. Described as above. The conditions noted are these: source organism: Pseudomonas aeruginosa UCBPP-PA14.
The target of assay [36] is HLA-A*24:02. The description is as above. The conditions noted are these: source organism: Pseudomonas aeruginosa UCBPP-PA14.
Assay [37] deals with HLA-A*11:01. The description is as above. Conditions: source organism: Pseudomonas aeruginosa UCBPP-PA14.
The target in assay [38] is HLA-B*40:01. The description is as above. Conditions: source organism: Pseudomonas aeruginosa UCBPP-PA14.
Setting [39] is: source organism: Mycobacterium tuberculosis C.
[40] abbreviates: source organism: Mycobacterium tuberculosis.
The mark [41] stands for this setting: source organism: Influenza A virus (A/goose/Hong Kong/8/1976(H1N1)).
Setting [42] is: source organism: Influenza A virus(A/swine/Shandong/fNY/2003(H9N2)).
Where [43] appears, read: source organism: Influenza A virus (A/Puerto Rico/8/34/Mount Sinai(H1N1)).
Where [44] appears, read: source organism: Pseudomonas aeruginosa UCBPP-PA14.
[45] abbreviates: source organism: Influenza A virus (A/chicken/Vietnam/5/2003(H5N1)).
The mark [46] stands for this setting: source organism: Shigella flexneri.

The pKd is the negative decadic logarithm of the Kd, by convention in mol/L. With TIHLATAPK, the negative logarithm of the Kd (pKd) in assay [1] was 6.12; in [2] (setting [39]), 9.70; in assay [3] (setting [39]), not above 4.70; in assay [4] (setting [39]), not above 4.70; in [5], not above 4.70; in assay [6] (setting [39]), not above 4.70. In addition, the pKd in [7] (setting [40]) is not above 4.70; in assay [8] it was not above 4.70; in [9], not above 4.70; in assay [10] (setting [40]), not above 4.70; in assay [11] (setting [40]) it was 6.19; in assay [12] (setting [40]), not above 4.70. In addition, the negative logarithm of the Kd (pKd) is not above 4.70 in assay [13] (setting [40]); not above 4.70 in assay [14] (setting [39]); not above 4.70 in [15] (setting [40]); not above 4.70 in [16] (setting [39]); 5.63 in [17] (setting [40]); not above 4.70 in [18]. The negative-log Kd (pKd) in assay [19] (setting [40]) is 8.06; in [20], not above 4.70; in assay [21] (setting [40]), not above 4.70.

Take KTTYWWDGL: the negative-log Kd (pKd) in [7] (setting [41]), in [22] (setting [41]), in assay [23] (setting [41]), in [24] (setting [41]), in assay [10] (setting [41]) and in assay [25] (setting [41]) was not above 4.70 throughout. Moreover, the pKd was not above 5.30 in [12] (setting [41]); not above 4.70 in [26] (setting [41]); not above 4.70 in assay [14] (setting [42]); not above 4.70 in assay [15] (setting [41]); not above 4.70 in assay [16] (setting [42]); not above 4.70 in assay [17] (setting [41]). For the same sequence, the negative logarithm of the Kd (pKd) in assay [27] (setting [41]) is not above 4.70; in assay [28] (setting [41]), not above 4.70; in assay [19] (setting [41]), not above 4.70; in assay [21] (setting [43]) it was not above 5.30.

On to AVFDGCVVY, for which the pKd in assay [29] was not above 4.70; in assay [2] (setting [44]), not above 4.70; in assay [3] (setting [44]) it was not above 4.70; in assay [30], 6.54; in assay [31], not above 4.70; in [4] (setting [44]) it was 6.96. For the same sequence, the pKd in assay [32] is 5.90; in [33], 5.95; in [34], not above 4.70; in assay [35], not above 4.70; in assay [6] (setting [44]) it was not above 4.70; in [36] it was not above 4.70. For the same sequence, the negative logarithm of the Kd (pKd) in [37] was 7.51; in [38], not above 4.70.

Regarding RYLNIYQLW, the pKd in assay [28] (source organism: Cryptosporidium parvum Iowa II) is 8.70.

For QTYDWTLNR, the pKd in assay [7] (setting [45]) is not above 4.70; in assay [22] (setting [45]) it was not above 4.70; in assay [23] (setting [43]), 6.42; in assay [24] (setting [45]) it was not above 4.70; in [10] (setting [45]), not above 4.70; in assay [25] (setting [45]), not above 4.70. Also, the negative-log Kd (pKd) in assay [12] (setting [45]), in assay [13] (setting [45]), in assay [26] (setting [45]), in assay [14] (source organism: Influenza A virus(A/swine/Henan/3/2004(H9N2))), in [15] (setting [45]) and in assay [27] (setting [45]) was not above 4.70 in each case. Further, the negative logarithm of the Kd (pKd) in [28] (setting [45]) and in assay [21] (setting [45]) was not above 4.70 each time.

On to LSSIGIPAY, for which the pKd is not above 4.70 in assay [7] (setting [46]); not above 4.70 in assay [22] (setting [46]); not above 4.70 in [23] (setting [46]); not above 4.70 in assay [24] (setting [46]); 6.44 in assay [10] (setting [46]); 6.52 in [25] (setting [46]). Moreover, the negative-log Kd (pKd) was not above 4.70 in [11] (setting [46]); 6.75 in assay [12] (setting [46]); not above 4.70 in assay [26] (setting [46]); not above 4.70 in assay [17] (setting [46]); not above 4.70 in assay [28] (setting [46]); not above 4.70 in assay [19] (setting [46]). Besides, the pKd in assay [21] (setting [46]) is not above 4.70.
